Patent US20260166139A1
Several values for one entry are separate records, joined by “and”; a condition that tells them apart may be missing. Equal entries are not always repeated.

How the values were obtained:
human CTLA4 (human) [1] = biological target: human CTLA4 (human) (UniProt P16410); assay: ELISA, coat CTLA4 0.5 ug/ml; antibody 1:729 (start 1 ug/ml)
CTLA4-mFc [2] = assay: competitive ELISA, competitor B7-1; control run with 8D2H3L3
human CTLA4 (human) [3] = biological target: human CTLA4 (human) (UniProt P16410); assay: ELISA, coat CTLA4 0.5 ug/ml; antibody 1:3 (start 1 ug/ml)
CTLA4-mFc [4] = assay: competitive ELISA, B7/1-hFc coated (competitor), CTLA4-mFc added; antibody 5 µg/ml diluted 1:9
CTLA4-mFc [5] = assay: competition ELISA, coat B7/1-hFc 0.2 ug/ml (competitor), CTLA4-mFc 0.3 ug/ml detected; antibody 1:3 (start 3 ug/ml)
CTLA4-mFc [6] = assay: competitive ELISA, competitor B7-2; control run with 8D2
CTLA4-mFc [7] = assay: competitive ELISA, B7/1-hFc coated (competitor), CTLA4-mFc added; antibody 5 µg/ml diluted 1:27
CTLA4-mFc [8] = assay: as above; remark: listed apart in the source
human CTLA4 (human) [9] = biological target: human CTLA4 (human) (UniProt P16410); assay: ELISA, coat human CTLA4 0.5 ug/ml; antibody 1:243 (start 1 ug/ml)
CTLA4-mFc [10] = assay: competitive ELISA, CTLA4-mFc coated, competitor B7/2-His; antibody 1 µg/ml diluted 1:81
human CTLA4 (human) [11] = biological target: human CTLA4 (human) (UniProt P16410); assay: ELISA, coat CTLA4 0.5 ug/ml; antibody 1 ug/ml
[12] = biological target: monkey CTLA4-hFc (monkey); assay: ELISA, coat monkey CTLA4-hFc 0.25 ug/ml; antibody 1 ug/ml
CTLA4-mFc [13] = assay: competitive ELISA, CTLA4-mFc coated, competitor B7/2-His; antibody 1 µg/ml diluted 1:729
CTLA4-mFc [14] = assay: competition ELISA, coat B7/1-hFc 0.2 ug/ml (competitor), CTLA4-mFc 0.3 ug/ml detected; antibody 1:9 (start 3 ug/ml)
CTLA4-mFc [15] = assay: competitive ELISA, competitor B7-1; control run with 8D2H2L15
human CTLA4 (human) [16] = biological target: human CTLA4 (human) (UniProt P16410); assay: ELISA, coat human CTLA4 0.5 ug/ml; antibody 1:729 (start 1 ug/ml)
CTLA4-mFc [17] = assay: competitive ELISA, CTLA4-mFc coated, competitor B7/2-His; antibody 1.5 µg/ml
human CTLA4 (human) [18] = biological target: human CTLA4 (human) (UniProt P16410); assay: ELISA, coat CTLA4 0.5 ug/ml; antibody 1:9 (start 1 ug/ml)
CTLA4-mFc [19] = assay: competition ELISA, coat B7/1-hFc 0.2 ug/ml (competitor), CTLA4-mFc 0.3 ug/ml detected; antibody 0 (no antibody)
CTLA4-mFc [20] = assay: competitive ELISA, CTLA4-mFc coated, competitor B7/2-His; antibody 0 (no antibody)
[21] = biological target: monkey CTLA4-hFc (monkey); assay: ELISA on coated CTLA4, source Monkey (row of 8D2H2L2)
CTLA4-mFc [22] = assay: competition ELISA, coat B7/1-hFc 0.2 ug/ml (competitor), CTLA4-mFc 0.3 ug/ml detected; antibody 1:81 (start 3 ug/ml)
CTLA4-mFc [23] = assay: competitive ELISA, B7/1-hFc coated (competitor), CTLA4-mFc added; antibody 5 µg/ml diluted 1:3
CTLA4-mFc [24] = assay: competitive ELISA, CTLA4-mFc coated, competitor B7/2-His; antibody 3 µg/ml diluted 1:3
CTLA4-mFc [25] = assay: competitive ELISA, CTLA4-mFc coated, competitor B7/2-His; antibody 1.5 µg/ml diluted 1:243
human CTLA4 (human) [26] = biological target: human CTLA4 (human) (UniProt P16410); assay: ELISA, coat CTLA4 0.5 ug/ml; antibody 1:243 (start 1 ug/ml)
human CTLA4 (human) [27] = biological target: human CTLA4 (human) (UniProt P16410); assay: ELISA on coated CTLA4, source Human (row of 8D2H2L2)
human CTLA4 (human) [28] = biological target: human CTLA4 (human) (UniProt P16410); assay: ELISA, coat human CTLA4 0.5 ug/ml; antibody 1 ug/ml
CTLA4-mFc [29] = assay: competitive ELISA, CTLA4-mFc coated, competitor B7/2-His; antibody 1.5 µg/ml diluted 1:9
CTLA4-mFc [30] = assay: competition ELISA, coat B7/1-hFc 0.2 ug/ml (competitor), CTLA4-mFc 0.3 ug/ml detected; antibody 3 ug/ml
human CTLA4 (human) [31] = biological target: human CTLA4 (human) (UniProt P16410); assay: ELISA on coated CTLA4, source Human (row of 8D2H2L15)
[32] = biological target: monkey CTLA4-hFc (monkey); assay: ELISA, coat monkey CTLA4-hFc 0.25 ug/ml; antibody 1:27 (start 1 ug/ml)
[33] = biological target: CTLA4 antigen (NCBI Gene ID: 1493) obtained by TEV protease cleavage of CTLA4-mFc (Homo sapiens (Human)) (UniProt P16410); assay: BLI (Fortebio), antibody on AR2G sensor, CTLA4 in solution
Chain of CTLA4 antigen (NCBI Gene ID: 1493) obtained by TEV protease cleavage of CTLA4-mFc (Homo sapiens (Human)) (P16410 37-161 limits assumed): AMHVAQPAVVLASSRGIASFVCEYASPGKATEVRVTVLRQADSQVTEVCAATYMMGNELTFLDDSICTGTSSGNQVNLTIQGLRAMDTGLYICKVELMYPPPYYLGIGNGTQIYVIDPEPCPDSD

human CTLA4 (human) [34] = biological target: human CTLA4 (human) (UniProt P16410); assay: ELISA, coat human CTLA4 0.5 ug/ml; antibody 0 (blank)
CTLA4-mFc [35] = assay: competitive ELISA, competitor B7-1; control run with 8D2H2L17
CTLA4-mFc [36] = assay: competitive ELISA, CTLA4-mFc coated, competitor B7/2-His; antibody 3 µg/ml diluted 1:243
human CTLA4 (human) [37] = biological target: human CTLA4 (human) (UniProt P16410); assay: ELISA on coated CTLA4, source Human (row of 8D2H2L17)

Chain of control antibody 11.2.1 (VH): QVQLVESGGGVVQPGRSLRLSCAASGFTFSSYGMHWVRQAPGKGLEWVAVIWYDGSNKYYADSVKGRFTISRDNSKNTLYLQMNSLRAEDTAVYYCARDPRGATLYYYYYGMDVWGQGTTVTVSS
Chain of control antibody 11.2.1 (VL): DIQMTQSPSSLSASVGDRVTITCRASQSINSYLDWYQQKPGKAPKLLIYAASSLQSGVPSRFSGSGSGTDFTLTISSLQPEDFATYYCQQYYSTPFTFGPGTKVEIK
Chain of CTLA4-mFc (chain, as listed by the source limits assumed): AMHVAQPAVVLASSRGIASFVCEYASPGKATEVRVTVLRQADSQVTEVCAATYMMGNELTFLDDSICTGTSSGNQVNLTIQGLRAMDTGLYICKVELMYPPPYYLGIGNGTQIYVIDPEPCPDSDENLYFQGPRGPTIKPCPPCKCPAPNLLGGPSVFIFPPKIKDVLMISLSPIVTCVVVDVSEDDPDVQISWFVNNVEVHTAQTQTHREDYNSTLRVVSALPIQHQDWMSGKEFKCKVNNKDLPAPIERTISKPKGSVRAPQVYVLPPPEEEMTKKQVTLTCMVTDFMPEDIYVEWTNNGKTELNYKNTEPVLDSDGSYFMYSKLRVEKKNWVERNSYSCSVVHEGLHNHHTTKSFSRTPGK
Chain of human CTLA4 (human) (P16410 36-161 limits assumed): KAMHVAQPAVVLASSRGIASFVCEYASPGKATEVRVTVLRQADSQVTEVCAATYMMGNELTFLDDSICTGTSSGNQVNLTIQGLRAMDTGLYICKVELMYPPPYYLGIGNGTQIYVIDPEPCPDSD

absorbance at 450 nm (human CTLA4 (human) [1]): 0.32 and 0.31
EC50 (CTLA4-mFc [2]): 1.07 nM
absorbance at 450 nm (human CTLA4 (human) [3]): 2.56 and 2.66
absorbance at 450 nm (CTLA4-mFc [4]): 0.16 and 0.138
absorbance at 450 nm (CTLA4-mFc [5]): 0.119 and 0.133
EC50 (CTLA4-mFc [6]): 0.15 nM
absorbance at 450 nm (CTLA4-mFc [7]): 0.488 and 0.369
absorbance at 450 nm (CTLA4-mFc [8]): 1.14 and 1.19
absorbance at 450 nm (human CTLA4 (human) [9]): 0.536 and 0.552
absorbance at 450 nm (CTLA4-mFc [10]): 0.84 and 0.76
absorbance at 450 nm (human CTLA4 (human) [11]): 2.75 and 2.69
absorbance at 450 nm [12]: 1.72 and 1.63
absorbance at 450 nm (CTLA4-mFc [13]): 0.87 and 0.85
absorbance at 450 nm (CTLA4-mFc [14]): 0.381 and 0.485
EC50 (CTLA4-mFc [15]): 2.61 nM
absorbance at 450 nm (human CTLA4 (human) [16]): 0.253 and 0.263
absorbance at 450 nm (CTLA4-mFc [17]): 0.372 and 0.494
absorbance at 450 nm (human CTLA4 (human) [18]): 2.69 and 2.44
absorbance at 450 nm (CTLA4-mFc [19]): 0.826 and 0.55
absorbance at 450 nm (CTLA4-mFc [20]): 1.19 and 1.1
EC50 [21]: 0.075 nM
absorbance at 450 nm (CTLA4-mFc [22]): 0.65 and 0.613
absorbance at 450 nm (CTLA4-mFc [23]): 0.08
absorbance at 450 nm (CTLA4-mFc [24]): 0.387 and 0.402
absorbance at 450 nm (CTLA4-mFc [25]): 0.93 and 0.754
absorbance at 450 nm (human CTLA4 (human) [26]): 0.75 and 0.79
EC50 (human CTLA4 (human) [27]): 0.09 nM
absorbance at 450 nm (human CTLA4 (human) [28]): 2.21 and 2.15
absorbance at 450 nm (CTLA4-mFc [29]): 0.479 and 0.412
absorbance at 450 nm (CTLA4-mFc [30]): 0.101 and 0.105
EC50 (human CTLA4 (human) [31]): 0.075 nM
absorbance at 450 nm [32]: 0.625 and 0.665
Kd [33]: 0.903 nM
koff [33]: 0.000349 s⁻¹
kon [33]: 387000 M⁻¹ s⁻¹
absorbance at 450 nm (human CTLA4 (human) [34]): 0.072 and 0.064
EC50 (CTLA4-mFc [35]): 2.61 nM
absorbance at 450 nm (CTLA4-mFc [36]): 1.24 and 1.21
EC50 (human CTLA4 (human) [37]): 0.075 nM
Substance: control antibody 11.2.1
